Test [1] deals with αVβ3 integrin (UniProt P06756).
Test [2] concerns the target αVβ3 integrin (UniProt P06756). The source holds these as a separate data set.
Test [3] addresses αVβ3 integrin (UniProt P06756). Briefly: BLI; Octet Red 96; biotinylated αVβ3 integrin on streptavidin (SAX) biosensors, usGNPs in solution, association 40-60 min; 50 mM HEPES pH 7.4, 150 mM NaCl, 5 mM KCl, 0.1% BSA, 0.05% Tween 20, 50 µM CaCl2; 30 °C; Kd approximated from the response at equilibrium against usGNP concentration, fit to the Hill equation.

With “DM1-cRGD-usGNP, (α-Galactose-C2)135(PEG(8)COOH)115(cRGD)20(DM1)20@Au2000”, the cytotoxicity on αVβ3 integrin expressing U-87 MG cells (XTT viability, 3 days), IC50 in DM1 equivalent concentration; DM1-usGNP without cRGD 25.2 nM in the test with αVβ3 integrin [1] was found to be 5 nM.
“HighcRAD-usGNP, (α-Galactose-C2)145(PEG(8)COOH)85(cRAD)60@Au2000”: the uptake by U-87 MG cells (high αVβ3 integrin), 1 × 10^8 particles per cell, 60 min, internalised gold by ICP-MS (usGNPs per cell) with αVβ3 integrin [2] is 2.7e+06.
The term Kd denotes the constant that tells how readily two partners part at equilibrium. “HighcRGD-usGNP, (α-Galactose-C2)145(PEG(8)COOH)85(cRGD)60@Au2000”: in the test with αVβ3 integrin [3], the Kd is 0.0292 nM. The uptake by U-87 MG cells (high αVβ3 integrin), 1 × 10^8 particles per cell, 60 min, internalised gold by ICP-MS (usGNPs per cell) with αVβ3 integrin [2] came out at 1.67e+07.
Take “LowcRAD-usGNP, (α-Galactose-C2)145(PEG(8)COOH)125(cRAD)20@Au2000”: the uptake by U-87 MG cells (high αVβ3 integrin), 1 × 10^8 particles per cell, 60 min, internalised gold by ICP-MS (usGNPs per cell) with αVβ3 integrin [2] worked out at 1.6e+06.
The substance “LowcRGD-usGNP, (α-Galactose-C2)145(PEG(8)COOH)125(cRGD)20@Au2000” had a Kd with αVβ3 integrin [3] of 3.2 nM. This substance had an uptake by U-87 MG cells (high αVβ3 integrin), 1 × 10^8 particles per cell, 60 min, internalised gold by ICP-MS (usGNPs per cell) with αVβ3 integrin [2] of 4.9e+06.

The record behind these values is article PMC9696180.
